# Like-named read-outs stand apart in the source and are kept apart here. Where no end group is shown, it is not given here.
# Columns and labels:
# [1] = tested on: IL-13; assay: IL-13 secretion in bronchoalveolar lavage fluid, ovalbumin-induced bronchial asthma and rhinitis mouse model; type: in vivo; conditions: 1 mg/kg IP
# Protocol: (§1) A bronchial asthma and rhinitis animal model was prepared by the following method. An ovalbumin solution was prepared by dissolving ovalbumin in an aluminum hydroxide solution (1 mg/ml) 28 and 14 days before the start of inducing bronchial asthma and rhinitis, and 200 μl of the solution was intraperitoneally injected into each mouse for sensitization. After 14 days of final sensitization, 20 μl of saline/PBS (normal control; NC) or 20 μl of 10 mg/mL ovalbumin solution (positive control; PC) was instilled into the nasal cavity of each lightly anesthetized mouse 4 times every other day for 8 days to induce bronchial asthma and rhinitis.
# After the end of the experiment, the amount of IL-13 in the supernatant obtained by centrifuging bronchoalveolar lavage fluid was measured and quantified by enzyme immunosorbent detection using mouse IL-13 ELISA kit (R&D system, USA).
# (§2) Next, in order to confirm whether there is an effect of inhibiting IL-13 secretion even when administered in a small number of times, the dTBP2 of Preparative Example 4 and Example 3 was administered to the mouse model of Example 4-1 through intraperitoneal injection once in 4 days for a total of 2 times for 8 days inducing bronchial asthma and rhinitis. The amount of IL-13 was measured and quantified by the enzyme immunosorbent detection method in the same manner.
# (§3) In addition, the dTBP2 of Preparative Example 4 and Example 3 was administered to the mouse model of Example 4-1 through intraperitoneal injection once on the 1st day of 8 days inducing bronchial asthma and rhinitis. The amount of IL-13 was measured and quantified by the enzyme immunosorbent detection method in the same manner.
# The amount of IL-13 was measured and quantified by the enzyme immunosorbent detection method in the same manner.
# [2] = tested on: eosinophils in bronchoalveolar lavage fluid; assay: Eosinophil increase in bronchoalveolar lavage fluid, ovalbumin-induced bronchial asthma and rhinitis mouse model; type: in vivo; conditions: 1 mg/kg IP, 8 times daily for 8 days, FIG. 9
# Protocol: as §1
# After anesthetizing the mouse by injecting a mixture of zoletil (250 mg/kg) and rompun (50 mg/kg) intraperitoneally, a 20-gauge catheter was inserted into the trachea by puncturing the trachea with a knife, and 0.6 mL of PBS at a time was injected-collected three times, and the collection rate was adjusted to 80%. The collected bronchoalveolar lavage fluid was centrifuged at 4° C., 3000 rpm for 10 minutes, and the cell precipitate was resuspended in 0.1 mL of PBS. 20 μL of the suspension was analyzed for the composition of blood cells using a fully automatic hematology analyzer (HEMAVET 950 FS, Drew Scientific, Inc.).
# [3] = Pharmacokinetic analysis in ICR mice; type: in vivo; conditions: IV, 10 mg/kg
# Protocol: The dTBP2 of Preparative Examples 4 and Example 3 was added to a solution prepared in DMSO:PEG400:DW=5:55:40, and this was administered at the concentration of 5 mL/kg. Blood samples were taken at 0.083, 0.25, 0.5, 1, 2, 4, and 8 hours post injection. The blood was centrifuged at 4° C., 3000 rpm for 10 minutes, to which cold acetonitrile containing internal standard was added in an amount 4 times the plasma component, and then deproteinization was carried out. After centrifugation again at 4° C., 13000 rpm for 10 minutes, the supernatant was collected and analyzed by Agilent 6460 LC-MS/MS. Pharmacokinetic analysis was performed with Phoenix WinNonlin (Pharsight ver 6.4, USA) using a non-compartmental analysis model.
# [4] = tested on: IL-5; assay: IL-5 secretion in bronchoalveolar lavage fluid, ovalbumin-induced bronchial asthma and rhinitis mouse model; type: in vivo; conditions: 1 mg/kg IP
# Protocol: as §1
# After the end of the experiment, the amount of IL-5 in the supernatant obtained by centrifuging bronchoalveolar lavage fluid was measured and quantified by enzyme immunosorbent detection using mouse IL-5 ELISA kit (Biolegend, USA).
# as §2, with “IL-5” for “IL-13”
# as §3, with “IL-5” for “IL-13”
# The amount of IL-5 was measured and quantified by the enzyme immunosorbent detection method in the same manner.
# [5] = microsomes; for Mouse (%) remaining after reaction: 0.5 h
# Protocol: (§4) Upon completion of the reaction, cold acetonitrile containing internal standard was added, and then deproteinization was carried out. The reactant was centrifuged at 4° C., 4000 rpm for 15 minutes, and the supernatant was analyzed by LC-MS/MS. The system was verified with buspirone, a reference material.
# [6] = tested on: ovalbumin-specific IgE; assay: Ovalbumin-specific IgE secretion in mouse plasma, ovalbumin-induced bronchial asthma and rhinitis mouse model; type: in vivo; conditions: 1 mg/kg IP
# Protocol: as §1
# Ovalbumin is an allergy-causing substance mainly contained in egg whites. […] After completion of the experiment, the mouse was anesthetized by injecting a mixture of zoletil (250 mg/kg) and rompun (50 mg/kg) intraperitoneally, and the chest was opened. 0.8 mL blood was collected by puncture of the heart with a 26 gauge 1 mL syringe coated with heparin. The collected blood was centrifuged at 4° C., 3000 rpm for 10 minutes to obtain plasma components. The amount of ovalbumin-specific IgE in the blood serum obtained through the above process was measured and quantified by enzyme immunosorbent detection method using mouse OVA specific IgE kit (Biolegend, USA).
# as §2, with “inhibiting ovalbumin-specific IgE” for “inhibiting IL-13”, “secretion in plasma” for “secretion”, “of ovalbumin-specific IgE secretion” for “of IL-13”
# as §3, with “ovalbumin-specific IgE secretion” for “IL-13”
# The amount of ovalbumin-specific IgE secretion was measured and quantified by the enzyme immunosorbent detection method in the same manner.
# [7] = microsomes; for Human (%) remaining after reaction: 0.5 h
# Protocol: as §4
substance,measurement,setting,value
Example 3: dTBP2 (WYVYPSM) conjugated at the N-terminal with methoxy polyethylene glycol propionaldehyde (10 kDa) ({mPEG propionaldehyde 10 kDa}-WYVYPSM),reduction of IL-13 secretion,"[1]; 8 times daily for 8 days, FIG. 18",about 20%
same,inhibiting IL-13 secretion,[1]; once in 4 days for a total of 2 times (FIG. 19) and once on the 1st day (FIG. 20),effective
same,IL-13 secretion inhibitory effect,"[1]; once on the 5th day of 8 days, FIG. 21",inhibitory effect
same,reduction of increased eosinophils vs positive control,[2],about 55%
same,AUClast,[3],2.83 µg·h/mL
same,AUC∞,[3],3.15 µg·h/mL
same,CL (clearance from plasma),[3],3.29 L/h/kg
same,T1/2 (half life),[3],3.18 h
same,Vss (steady-state volume of distribution),[3],7.37 L/kg
same,increase of half-life compared to the dTBP2 of Preparative Example 4,[3],about 1.6 times
same,initial plasma concentration relative to the dTBP2 of Preparative Example 4,[3],about 1000 times
same,stability in plasma,"[3]; FIG. 26, versus Preparative Example 4",improved
same,reduction of IL-5 secretion,"[4]; 8 times daily for 8 days, FIG. 10",about 50%
same,inhibiting IL-5 secretion,[4]; once in 4 days for a total of 2 times (FIG. 11) and once on the 1st day (FIG. 12),effective
same,IL-5 secretion inhibitory effect,"[4]; once on the 5th day of 8 days, FIG. 13",effectively inhibited
same,Mouse (%) remaining after reaction,[5],more than 75%
same,Mouse (%) remaining after reaction,[5]; pH 7.4,75.26%
same,half-life according to the evaluation criteria,[5]; mouse,1 to 3 h
same,inhibitory ability on ovalbumin-specific IgE secretion compared with dTBP2 of Preparative Example 4,[6]; FIGS. 23 and 24,better
same,inhibiting ovalbumin-specific IgE secretion,[6]; once in 4 days for a total of 2 times (FIG. 23) and once on the 1st day (FIG. 24),effective
same,ovalbumin-specific IgE secretion inhibitory effect,"[6]; once on the 5th day of 8 days, FIG. 25",inhibitory effect
same,inhibiting ovalbumin-specific IgE secretion in plasma (in words),"[6]; plasma, 8 times daily for 8 days",very effective
same,reduction of ovalbumin-specific IgE secretion,"[6]; plasma, 8 times daily for 8 days, FIG. 22",about 50%
same,half-life according to the evaluation criteria,[7]; human,1 to 3 h
same,Human (%) remaining after reaction,[7],more than 75%
same,Human (%) remaining after reaction,[7]; pH 7.4,75.77%
